This is an account of results in PMC6222848, “Spatial Overlap of Claudin- and Phosphatidylinositol Phosphate-Binding Sites on the First PDZ Domain of Zonula Occludens 1 Studied by NMR” (Molecules : A Journal of Synthetic Chemistry and Natural …, 2018).

First the molecules themselves.
B1: GST-tagged mouse ZO-1(PDZ1) (residues 18–110) [mouse] / His6-tagged thioredoxin (Trx) fusion protein of mouse CLD-3 C-terminus (Trx-CLD3, residues 210–219) [mouse] (parent)
chain 1: IWEQHTVTLHRAPGFGFGIAISGGRDNPHFQSGETSIVISDVLKGGPAEGQLQENDRVAMVNGVSMDNVEHAFAVQQLRKSGKNAKITIRRKK
chain 2: GTAYDRKDYV

Variants of B1 are the subject of this experiment. Description: SPR. As to conditions: with His6-tagged thioredoxin (Trx) fusion protein of mouse CLD-3 C-terminus (Trx-CLD3, residues 210–219) [mouse], read off a plot.
[1] abbreviates: absence of phytic acid (gray bar), parent: 1.2e+03.
The mark [2] stands for this setting: presence of 10 mM phytic acid (InsP6) (black bar), parent: 530.

Regarding chain 1 R11A, the response reads like this: under setting [1], 340 RU; under setting [2], 78 RU.
The corresponding values for chain 1 K83A are 1300 RU and 480 RU.
Take chain 1 K80A: the response worked out at 1400 RU under setting [1] and 460 RU under setting [2].
